The values that follow come from US20220073618A1 (NANJING GENSCRIPT BIOTECH, published 2022).

Assay [1] concerns the target T1, human PD-L1 protein (human, UniProt Q9NZQ7 19-238, limits assumed). Nature of the assay: ELISA on human PD-L1 protein; antibody treated for 20 min (overlapping curves, room temperature to 60 C by the legend, not told apart). Here is the method:
(§1) The antibody samples were treated for 20 min at various temperature gradients respectively, and then centrifuged to remove the pellet. Then the amount of remaining antibody was evaluated by ELISA. (The temperature gradient includes: room temperature, 30° C., 40° C., 50° C., 60° C., 70° C., […]) (FIG. 4)
A general note: An ELISA detects its analyte on a solid surface through an enzyme-linked reagent.

In assay [2] the target is T2, PD-L1-HIS recombinant protein (human, UniProt Q9NZQ7 19-238, limits assumed).
T2 construct: not shown: His tag
Nature of the assay: SPR (Biacore 8K), antibody captured on chip, PD-L1-HIS analyte 2.5-80 nM, 1:1 binding model. Here is the method:
The chip surface was equilibrated with HBS-EP buffer at a flow rate of 10 μl/min for 5 min, and then a 1:1 mixture of “NHS+EDC” was injected at a flow rate of 10 μl/min for 420 sec to activate the chip. The capture antibody (goat anti-murine IgG) diluted in 10 mM sodium acetate buffer was injected for about 420 sec at a flow rate of 10 μl/min for coupling, and finally ethanolamine was injected for 420 sec at a flow rate of 10 μl/min to block the surface.
Three pre-cycles were performed with the HBS-EP buffer as a sample to balance the chip to stabilize the baseline. The antibody diluted in HBS-EP buffer was injected for 30 sec at a flow rate of 10 μl/min (where the antibody-antigen binding signal was controlled to about 100 RU by adjusting the capture time between 0-5 min), and then the chip was equilibrated with the buffer for 1 min. The low-concentration antigen 2.5 nM PD-L1-HIS was injected at a flow rate of 30 μl/min for 240/300 seconds, to allow the antigen to bind to the antibody, and then the buffer was injected at a flow rate of 30 μl/min for 720/600 seconds for dissociation. 50 mM HCl were injected three times each for 15 s at a flow rate of 100 μl/min for regeneration, to complete one cycle. The antigen concentration was changed (such as 5 nM PD-L1-HIS) to carry out the cycle for measurement at a next gradient concentration until all gradient concentrations (2.5 nM, 5 nM, 10 nM, 20 nM, 40 nM, 80 nM PD-L1-HIS) and the replicate (such as 10 nM PD-L1-HIS) were tested.
The experimental data was double subtracted (minus the background values of the control channel and zero concentration), and fitted to the “1:1 binding” model in the Biacore 8K evaluation software. Biacore 8K was used to determine the affinity of the antibody to the PD-L1-HIS recombinant protein.
A general note: SPR reads the build-up and loss of mass on a sensor chip optically.

The target of assay [3] is T1, human PD-L1 protein. Nature of the assay: ELISA on human PD-L1 protein; control antibody stored at -80 C. As to the method: as §1
In assay [4] the target is T1, human PD-L1 protein. Description: ELISA on human PD-L1 protein; antibody kept at 40 C for 0 (D0), 7 (D7) or 14 (D14) days. As to the method: (§2) The antibody samples were treated separately at 40° C., and then centrifuged to remove the pellet. Then the amount of remaining antibody was evaluated by ELISA. (test after treatment at 40° C. for 7 days (D7) and 14 days (D14) separately; for each test, the untreated sample (D0) stored at −80° C. is used as a control) (FIG. 3)

The target of assay [5] is T3, human PD-L1 on cell surface (human, UniProt Q9NZQ7 19-290). Nature of the assay: cell-based or functional assay.
Assay [6] deals with T1, human PD-L1 protein. Nature of the assay: ELISA on human PD-L1 protein; antibody treated for 20 min at 70 C. As to the method:
as §1

The target of assay [7] is T1, human PD-L1 protein. Nature of the assay: ELISA on human PD-L1 protein; antibody after 14 days at 40 C (D14). As to the method: as §2
Assay [8] concerns the target T1, human PD-L1 protein. Nature of the assay: ELISA on human PD-L1 protein; antibody treated for 20 min (all overlapping curves, including the -80 C control). Here is the method:
as §1

In assay [9] the target is T1, human PD-L1 protein. Description: ELISA on the antigen (human PD-L1); antibody untreated (0), after oxidative stress (AAPH, 24 h) or deamidation stress (pH 9.0, 48 h).
Assay [10] has as its target T1, human PD-L1 protein. Nature of the assay: ELISA on human PD-L1 protein; untreated antibody (D0) and antibody after 7 days at 40 C (D7). Here is the method:
as §2

The target of assay [11] is T4, biotin-labeled PD-L1-Fc (human, UniProt Q9NZQ7 19-238, limits assumed, biotin-labeled (sites not given)).
T4 construct: not shown: Fc part
Description: flow cytometry: biotin-PD-L1-Fc binding to CHO cells expressing human PD-1 with titrated antibody, fitted curve; enhancement. As to the method:
(§3) In the FACS test, CHO cells expressing human PD-1 and parent cells as a negative control were washed 3 times with PBS. 2.5×10⁵ detection cells and 50 μl of 3-fold serial dilutions of purified antibody with an initial concentration of 300 nM were added to a 96-well plate. […] Then the cells were washed 3 times with PBS, 100 μl of iFluor647-labeled streptavidin (1 μg/ml) was added, and the cells were incubated at 4° C. for 45 min. Finally, the cells were washed 3 times with PBS, and the signal was read on FACS BD Calibur.
For orientation: A flow cytometer gives signals particle by particle.

Assay [12] concerns the target T4, biotin-labeled PD-L1-Fc. Nature of the assay: ELISA: biotin-PD-L1-Fc binding to coated human PD-1 with titrated antibody, OD 450 nm, fitted curve; enhancement. As to the method:
(§4) The ELISA plate (Nunc) was coated with 100 μl/well of 0.5 μg/ml recombinant human PD-1 protein in PBS at 4° C. overnight. The plate was washed with PBS-T (0.05% Tween), and blocked with 200 μl/well of PBST containing 1% BSA at 37° C. for 0.5 hr. Then the blocking buffer was discarded, and 50 μl of 10 μg/ml purified antibody to be tested was added to the first test well. 3-fold serial dilutions were made, and a total of 11 test concentration gradients were given. […] The plate was washed 3 times with PBST, and incubated with 100 μl/well of Streptavidin-HRP (SA-HRP, GenScript) at 37° C. for 10 min. Finally, the plate was washed 5 times with PBST, and then a TMB developing solution (GenScript) was added and incubated at room temperature for 15 min in the dark. The reaction was terminated by adding 50 μl of 1M HCl stop solution (Sigma). The plate was read at 450 nm on a microplate reader.

Assay [13] concerns the target T1, human PD-L1 protein. Nature of the assay: ELISA on human PD-L1 protein; antibody treated for 20 min at room temperature to 70 C and -80 C control (curves not told apart). Here is the method:
as §1

The target of assay [14] is T4, biotin-labeled PD-L1-Fc. Nature of the assay: ELISA: biotin-PD-L1-Fc binding to coated human PD-1 with titrated antibody; enhancement of PD-L1/PD-1 binding. Here is the method:
as §4

In assay [15] the target is T4, biotin-labeled PD-L1-Fc. Description: flow cytometry: biotin-PD-L1-Fc binding to CHO cells expressing human PD-1 with titrated antibody; enhancement of PD-L1/PD-1 binding. As to the method:
as §3

Assay [16] has as its target T1, human PD-L1 protein. Nature of the assay: ELISA on the antigen (human PD-L1); antibody untreated (0), after oxidative stress (AAPH, 24 h) or deamidation stress (pH 9.0, 48 h). The source holds these as a separate data set.
Assay [17] addresses T3, human PD-L1 on cell surface. Description: flow cytometry on CHO cells expressing human PD-L1, fitted curve. As to the method:
(§5) CHO cells expressing human or monkey PD-L1 and parent cells as a negative control were washed 3 times with PBS. 2.5×10⁵ detection cells and 100 μl of 3-fold serial dilutions of purified antibody with an initial concentration of 300 nM were added to a 96-well plate and incubated at 4° C. for 1 hr. […] Finally, the cells were washed 3 times with PBS, and the signal was read on FACS BD Calibur.

For assay [18], the target named is T5, monkey PD-L1 on cell surface (monkey).
T5 construct: whole, on cells; also called monkey PD-L1 cell line; CHO cells overexpressing monkey PD-L1
Nature of the assay: flow cytometry on CHO cells expressing monkey PD-L1, fitted curve. Here is the method: as §5
Moreover, CHO cells overexpressing monkey PD-L1 were used to test the cross-recognition binding to monkey PD-L1 by the antibodies.

T4 sequence (Q9NZQ7 19-238 limits assumed): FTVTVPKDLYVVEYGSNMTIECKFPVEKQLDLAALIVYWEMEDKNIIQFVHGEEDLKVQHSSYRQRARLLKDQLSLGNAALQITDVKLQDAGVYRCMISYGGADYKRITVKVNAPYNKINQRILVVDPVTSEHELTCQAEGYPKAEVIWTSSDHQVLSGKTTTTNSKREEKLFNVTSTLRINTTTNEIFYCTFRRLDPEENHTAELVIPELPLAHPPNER
T1 sequence (Q9NZQ7 19-238 limits assumed): as above
T2 sequence (Q9NZQ7 19-238 limits assumed): as above
T3 sequence (Q9NZQ7 19-290): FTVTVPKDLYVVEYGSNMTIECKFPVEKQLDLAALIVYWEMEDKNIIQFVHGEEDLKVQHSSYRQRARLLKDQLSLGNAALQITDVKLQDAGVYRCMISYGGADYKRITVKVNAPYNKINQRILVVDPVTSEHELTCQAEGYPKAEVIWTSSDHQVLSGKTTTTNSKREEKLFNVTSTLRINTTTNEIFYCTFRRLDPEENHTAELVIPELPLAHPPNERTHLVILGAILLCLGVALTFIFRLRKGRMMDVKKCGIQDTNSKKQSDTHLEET

B1: Chimeric antibody (antibody, V domains shown)
VH: DVQLQESGPDLVKPSQSLSLTCTVTGYSITSGYTWHWIRQFPGNKLEWMGYIHYSGSTKYNPSLKSRFSITRDTSKNQFFLQLNSMTAEDTATYYCARNSLFASWGHGTLVTVSA
VL: DIVLTQSPASLAVSLGQRATISCRASESVDTYGDSFMHWFQQKPGQPPKLLIYRASNLESGIPARFSGSGSRTDFTLTINPVEADDVATYYCQQSNEAPYTFGGGTKLEIK
notes: also called mPD-L1Ab-Chim
What is called EC50 (read off the curve) is the concentration at which the effect is half-maximal. What is called Kd is a measure of binding affinity in units of concentration. As usually defined, the koff is the rate constant with which the complex falls apart. As a reminder, the kon is the second-order rate constant of association. With B1, the “EC50 (read off the curve)” value with human PD-L1 protein [1] was about 8 ng/mL. For the same molecule, in assay [2], the Kd was found to be 1.27 nM, the koff worked out at 0.000219 s⁻¹ and the kon was 172000 M⁻¹ s⁻¹. Moreover, the “EC50 (read off the curve)” value in the assay with human PD-L1 protein [3] was about 10 ng/mL. Moreover, in the assay with human PD-L1 protein [4], the “EC50 (read off the curve)” value is about 10 ng/mL.

B2: AH01950 (antibody, human IgG1, V domains shown)
VH: QVQLQESGPGLVKPSQTLSLTCTVSGYSITSGYTWHWIRQHPGKGLEWIGYIHYSGSTKYNPSLKSRVTISRDTSKNQFSLKLSSVTAADTAVYYCARNSLFASWGQGTLVTVSS
VL: DIVLTQSPDSLAVSLGERATINCRASESVDTYGDSFMHWFQQKPGQPPKLLIYRASNLESGVPDRFSGSGSGTDFTLTISSLQAEDVAVYYCQQSNEAPYTFGGGTKLEIK
notes: also called mPD-L1Ab-CBM clone AH01950
As to B2, in assay [5], the “Bottom (best-fit value) of IL-2 release, mixed lymphocyte reaction” value came out at 1140; the “EC50 (µg/ml) of IL-2 release, mixed lymphocyte reaction” value came out at 0.0311 µg/mL; the “LogEC50 (best-fit value) of IL-2 release, mixed lymphocyte reaction” value is -1.51; the “Span (best-fit value) of IL-2 release, mixed lymphocyte reaction” value worked out at 950. Besides, in [5], the “Top (best-fit value) of IL-2 release, mixed lymphocyte reaction” value worked out at 2090. The “EC50 (read off the curve)” value with human PD-L1 protein [6] is about 30 ng/mL. For the same molecule, in [2], the Kd amounted to 0.82 nM, the koff stood at 0.000152 s⁻¹ and the kon worked out at 185000 M⁻¹ s⁻¹. The “EC50 (read off the curve)” value in the assay with human PD-L1 protein [7] was about 20 ng/mL. In the assay with human PD-L1 protein [8], the “EC50 (read off the curve)” value was about 10 ng/mL. Further, the “EC50 (read off the curve)” value with human PD-L1 protein [9] is about 10 ng/mL. Also, the “EC50 (read off the curve)” value with human PD-L1 protein [10] was about 10 ng/mL.

B3: AH01946 (antibody, human IgG1, V domains shown)
VH: QVQLQESGPGLVKPSQTLSLTCTVSGYSITSGYTWHWIRQHPGKGLEWIGYIHYSGSTKYNPSLKSRVTISRDTSKNQFSLKLSSMTAADTAVYYCARNSLFASWGQGTLVTVSS
VL: DIVLTQSPDSLAVSLGERATINCRASESVDTYGDSFMHWFQQKPGQPPKLLIYRASNLESGVPDRFSGSGSGTDFTLTISSVQAEDVAVYYCQQSNEAPYTFGGGTKLEIK
notes: also called mPD-L1Ab-CBM clone AH01946
One may read the EC50 as the concentration giving half of the maximal effect. As to B3, in assay [5], the “Bottom (best-fit value) of IL-2 release, mixed lymphocyte reaction” value was found to be 1170; the “EC50 (µg/ml) of IL-2 release, mixed lymphocyte reaction” value is 0.0295 µg/mL; the “LogEC50 (best-fit value) of IL-2 release, mixed lymphocyte reaction” value was -1.53; the “Span (best-fit value) of IL-2 release, mixed lymphocyte reaction” value amounted to 866. Further, in [5], the “Top (best-fit value) of IL-2 release, mixed lymphocyte reaction” value was found to be 2030. Besides, the LogEC50 in the assay with biotin-labeled PD-L1-Fc [11] came out at 1.45. In addition, the LogEC50 with biotin-labeled PD-L1-Fc [12] turned out to be 1.34. The “EC50 (read off the curve)” value with human PD-L1 protein [13] was about 10 ng/mL. Moreover, in the assay with biotin-labeled PD-L1-Fc [14], the EC50 was 21.9 ng/mL. Also, in assay [2], the dissociation constant (Kd) came out at 0.835 nM, the koff was 0.000155 s⁻¹ and the kon came to 186000 M⁻¹ s⁻¹. Further, the EC50 with biotin-labeled PD-L1-Fc [15] stood at 28.1 nM. Besides, in the assay with human PD-L1 protein [16], the “EC50 (read off the curve)” value is about 10 ng/mL. In addition, in assay [17], the EC50 turned out to be 0.501 nM and the LogEC50 was -0.3. In assay [18], this molecule showed an EC50 of 3.29 nM and a LogEC50 of 0.518. Also, in the assay with human PD-L1 protein [4], the “EC50 (read off the curve)” value is about 10 ng/mL.
